Laboratory results from patent US20170129957A1 (BERGENBIO ASA, published 2017).

Experiments:
[1] = molecular target: T1, human Axl receptor of Axl+ human cell lines (MDA-MB-231, NCI-H1299, HeLa) (human, UniProt P30530 26-894); test: flow cytometry on MDA-MB-231 cells, detection with APC-conjugated donkey anti-mouse IgG (H+L) F(ab')2
T1 construct: also called Axl+ cells; Axl-positive cells
T1 sequence: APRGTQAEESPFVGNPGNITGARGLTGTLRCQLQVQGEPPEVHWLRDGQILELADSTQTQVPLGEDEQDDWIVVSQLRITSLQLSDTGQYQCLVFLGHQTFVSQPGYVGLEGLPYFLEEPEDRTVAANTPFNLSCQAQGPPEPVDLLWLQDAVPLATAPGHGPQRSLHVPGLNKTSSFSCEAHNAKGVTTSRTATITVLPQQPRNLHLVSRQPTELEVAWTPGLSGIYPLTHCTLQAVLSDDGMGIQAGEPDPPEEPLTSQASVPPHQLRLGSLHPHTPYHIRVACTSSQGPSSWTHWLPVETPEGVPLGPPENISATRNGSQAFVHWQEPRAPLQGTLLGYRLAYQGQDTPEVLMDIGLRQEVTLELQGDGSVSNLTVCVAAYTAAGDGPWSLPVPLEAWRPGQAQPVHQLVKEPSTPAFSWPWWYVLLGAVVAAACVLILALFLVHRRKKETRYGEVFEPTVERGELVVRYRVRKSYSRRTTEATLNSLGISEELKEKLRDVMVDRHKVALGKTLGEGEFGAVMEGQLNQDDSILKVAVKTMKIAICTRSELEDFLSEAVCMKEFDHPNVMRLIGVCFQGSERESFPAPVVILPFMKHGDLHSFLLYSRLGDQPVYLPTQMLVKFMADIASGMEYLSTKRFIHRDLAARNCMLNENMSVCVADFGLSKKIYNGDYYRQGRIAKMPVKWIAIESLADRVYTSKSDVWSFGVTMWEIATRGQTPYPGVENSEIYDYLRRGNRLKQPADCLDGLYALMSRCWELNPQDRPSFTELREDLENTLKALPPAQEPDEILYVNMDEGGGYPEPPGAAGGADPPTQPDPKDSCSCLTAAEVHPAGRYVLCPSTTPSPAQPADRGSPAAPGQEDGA

[2] = molecular target: T2, recombinant human Axl-Fc chimera (R&D Systems, Cat. no. 154-AL) (human, UniProt P30530 26-451); test: SPR (Biacore 3000, 25 °C), rhAxl-Fc immobilised at 190 RU, 1H12 1.3-666.7 nM, KD as koff/kon
T2 construct: Bought reagent; also called rhAxl-Fc; rhAxl; not shown: human IgG1 Fc domain
T2 sequence: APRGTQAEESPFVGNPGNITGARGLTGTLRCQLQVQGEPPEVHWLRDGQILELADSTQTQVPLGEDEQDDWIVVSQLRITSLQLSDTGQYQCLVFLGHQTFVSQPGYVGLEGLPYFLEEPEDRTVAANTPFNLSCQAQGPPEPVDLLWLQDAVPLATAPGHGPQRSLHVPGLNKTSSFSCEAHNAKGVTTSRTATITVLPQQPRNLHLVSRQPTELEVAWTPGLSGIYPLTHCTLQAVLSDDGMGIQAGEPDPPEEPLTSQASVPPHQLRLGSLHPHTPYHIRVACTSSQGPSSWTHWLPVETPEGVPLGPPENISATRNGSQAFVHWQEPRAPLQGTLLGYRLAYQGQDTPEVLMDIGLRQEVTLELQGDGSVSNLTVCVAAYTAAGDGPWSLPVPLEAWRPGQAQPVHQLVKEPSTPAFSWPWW

[3] = molecular target: T2, recombinant human Axl-Fc chimera (R&D …); test: SPR (Biacore 3000), rhAxl-Fc immobilised on CM5 at 190 RU, MAb 1H12 at 1.3-666.7 nM, 25 °C, BIAevaluation fit [table under the sensorgrams]
[4] = molecular target: T3, recombinant mouse Axl-Fc chimera (R&D Systems, Cat. no. 854-AX) (mouse, UniProt Q00993 19-443); test: SPR (Biacore 3000), rmAxl-Fc immobilised on CM5 at 2,115.9 RU, MAb 1H12 injected [upper panel 1H12]
T3 construct: Bought soluble Fc chimera; also called rmAxl-Fc; rmAxl; Fc part of the bought chimera not given
T3 sequence: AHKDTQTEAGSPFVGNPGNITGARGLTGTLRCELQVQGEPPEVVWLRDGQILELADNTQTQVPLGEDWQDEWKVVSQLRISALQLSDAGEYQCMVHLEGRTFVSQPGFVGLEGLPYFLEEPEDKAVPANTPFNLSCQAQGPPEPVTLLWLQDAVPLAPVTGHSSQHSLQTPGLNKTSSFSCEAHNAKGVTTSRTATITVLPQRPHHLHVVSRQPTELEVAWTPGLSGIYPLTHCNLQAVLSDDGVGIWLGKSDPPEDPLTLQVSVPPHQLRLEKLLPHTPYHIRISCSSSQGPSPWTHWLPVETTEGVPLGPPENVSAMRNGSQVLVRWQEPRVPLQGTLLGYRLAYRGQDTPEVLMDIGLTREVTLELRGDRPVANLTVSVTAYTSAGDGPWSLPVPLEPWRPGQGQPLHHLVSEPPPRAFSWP

[5] = molecular target: T2, recombinant human Axl-Fc chimera (R&D …); test: SPR (Biacore 3000, 25 °C), calculated as ln2/koff
[6] = molecular target: T2, recombinant human Axl-Fc chimera (R&D …); test: SPR (Biacore 3000, 25 °C), rhAxl-Fc immobilised at 190 RU, 1H12 1.3-666.7 nM
[7] = molecular target: T4, recombinant human Mer-Fc chimera (R&D Systems, Cat. no. 891-MR) (human, UniProt Q12866 21-499, limits assumed); test: SPR (Biacore 3000), rhMer-Fc immobilised on CM5 at 303.6 RU, MAb 1H12 injected
T4 construct: Bought soluble Fc chimera; also called rhMer-Fc; rhMer; Fc part of the bought chimera not given
T4 sequence (looked up): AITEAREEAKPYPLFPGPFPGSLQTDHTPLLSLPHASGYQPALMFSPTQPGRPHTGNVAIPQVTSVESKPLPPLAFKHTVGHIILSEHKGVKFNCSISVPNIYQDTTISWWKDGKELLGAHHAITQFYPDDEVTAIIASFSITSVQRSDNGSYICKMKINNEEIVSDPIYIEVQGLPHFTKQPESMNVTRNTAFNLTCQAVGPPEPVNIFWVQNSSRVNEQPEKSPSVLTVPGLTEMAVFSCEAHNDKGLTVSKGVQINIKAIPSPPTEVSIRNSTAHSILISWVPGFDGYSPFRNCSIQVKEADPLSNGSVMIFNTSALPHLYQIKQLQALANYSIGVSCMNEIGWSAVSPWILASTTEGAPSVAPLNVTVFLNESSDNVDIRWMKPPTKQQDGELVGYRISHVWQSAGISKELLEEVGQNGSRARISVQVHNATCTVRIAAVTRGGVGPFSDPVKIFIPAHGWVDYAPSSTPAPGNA

[8] = molecular target: T5, recombinant human Tyro3/Dtk-Fc chimera (R&D Systems, Cat. no. 859-DK) (human, UniProt Q06418 41-428); test: SPR (Biacore 3000), rhTyro3/Dtk-Fc immobilised on CM5 at 364.0 RU, MAb 1H12 injected
T5 construct: Bought soluble Fc chimera; also called rhTyro3-Fc; rhTyro3; Fc part of the bought chimera not given
T5 sequence: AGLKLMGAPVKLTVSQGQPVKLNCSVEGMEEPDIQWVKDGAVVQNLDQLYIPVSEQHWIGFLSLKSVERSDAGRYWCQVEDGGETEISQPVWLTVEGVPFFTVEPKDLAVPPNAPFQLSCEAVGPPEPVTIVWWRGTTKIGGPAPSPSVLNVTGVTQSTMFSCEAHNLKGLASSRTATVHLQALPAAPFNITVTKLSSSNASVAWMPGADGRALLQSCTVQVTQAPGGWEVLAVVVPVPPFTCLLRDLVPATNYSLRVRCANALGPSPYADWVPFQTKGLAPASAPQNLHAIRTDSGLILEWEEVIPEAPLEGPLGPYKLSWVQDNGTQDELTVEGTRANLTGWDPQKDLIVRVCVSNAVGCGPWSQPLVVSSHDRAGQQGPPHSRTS

[9] = molecular target: T1, human Axl receptor of Axl+ human cell …; test: flow cytometry on MDA-MB-231 cells, detection with APC-conjugated donkey anti-human IgG (H+L) F(ab')2
[10] = molecular target: T2, recombinant human Axl-Fc chimera (R&D …); test: SPR (Biacore 3000, 25 °C), rhAxl-Fc immobilised at 190 RU, ch1H12 1.3-666.7 nM, 1:1 Langmuir model
[11] = molecular target: T2, recombinant human Axl-Fc chimera (R&D …); test: SPR (Biacore 3000, 25 °C), rhAxl-Fc immobilised at 190 RU, ch1H12 1.3-666.7 nM, 1:1 Langmuir model, KD as koff/kon
[12] = molecular target: T2, recombinant human Axl-Fc chimera (R&D …); test: SPR (Biacore 3000, 25 °C), comparison of KD with parental murine 1H12
[13] = molecular target: T2, recombinant human Axl-Fc chimera (R&D …); test: SPR (Biacore 3000), rhAxl-Fc immobilised on CM5 at 190 RU, ch1H12 at 1.3-666.7 nM, 25 °C, 1:1 Langmuir fit [table under the sensorgrams]

| Binder | EC50 (read off the curve) [1] [nM] | Kd [2] [nM] | kon [3] [M⁻¹ s⁻¹] | binding result [4] | half-life of the 1H12/Axl complex [5] [h] | koff [6] [s⁻¹] | binding result [7] | binding result [8] | EC50 (read off the curve) [9] [nM] | half-life of the ch1H12/Axl complex [5] [h] | koff [10] [s⁻¹] | Kd [11] [nM] | fold lower KD than the parental murine antibody 1H12 [12] [fold] | kon [13] [M⁻¹ s⁻¹] |
| --- | --- | --- | --- | --- | --- | --- | --- | --- | --- | --- | --- | --- | --- | --- |
| mouse anti-Axl monoclonal antibody 1H12 (antibody, V domains shown, also called MAb 1H12; m 1H12) VH: EVKLVESGGDLVKPGGSLKLSCAASGFTFSSYGMSWVRQTPDKRLEWVATISSGGSYTYYPDSVKGRFTISRDNAKNTLYLQMSSLKSEDTAMYYCARHPIYYTYDDTMDYWGQGTSVTVSS VL: DIVLTQSPAIMAASPGEKVTMTCSASSSVSSGNFHWYQQKPGTSPKLWIYRTSNLASGVPARFSGSGSGTSYSLTISSMEAEDAATYYCQQWSGYPWTFGGGTKLEIK | ~0.9 | 0.0498 | 214000 | no binding (tested: 10 µg/mL) | 18 | 1.07e-05 | no binding (tested: 10 µg/mL) | no binding (tested: 10 µg/mL) | – | – | – | – | – | – |
| chimeric (mouse variable/human constant IgG1) monoclonal antibody ch1H12 (antibody, V domains shown, also called chimeric MAb ch1H12; chimeric monoclonal antibody 1H12; not shown: constant domains of the human IgG1 heavy chain; human light chain constant domain (C-kappa)) VH: EVKLVESGGDLVKPGGSLKLSCAASGFTFSSYGMSWVRQTPDKRLEWVATISSGGSYTYYPDSVKGRFTISRDNAKNTLYLQMSSLKSEDTAMYYCARHPIYYTYDDTMDYWGQGTSVTVSS VL: DIVLTQSPAIMAASPGEKVTMTCSASSSVSSGNFHWYQQKPGTSPKLWIYRTSNLASGVPARFSGSGSGTSYSLTISSMEAEDAATYYCQQWSGYPWTFGGGTKLEIK | – | – | – | – | – | – | – | – | ~0.6 | 64.4 | 2.99e-06 | 0.011 | 4.5 | 271000 |
